In patent US20190142971A1, “FORMULATION AND DELIVERY OF MODIFIED NUCLEOSIDE, NUCLEOTIDE, AND NUCLEIC ACID COMPOSITIONS” (ModernaTX, Inc., priority 2013, published 2019):

Experiments:
Format in all cases: in vivo
mice [1] = experiment: Example 18: time course LNP IV in mice, serum EPO/G-CSF ELISA (Table 35); conditions: for protein expression detectable out to: mice IV; for EPO / G-CSF Serum Concentration: mice, LNP IV
Experimental: (§1) Formulations, listed in Table 33, were characterized by particle size, zeta potential, and encapsulation.
LNP formulations, shown in Table 33 (above), were administered to mice (n=5) intravenously (IV) at a single modified mRNA dose of 0.5, 0.05 or 0.005 mg/kg. The mice were bled at 8 hours, 24 hours, 72 hours and 6 days after they were administered with G-CSF or EPO modified mRNA formulations to determine protein expression using ELISA.

Sprague-Dawley rats [2] = experiment: Example 34: EPO mRNA in buffer IM in rats, serum EPO (Table 59); conditions: 13 hours post injection
C57/BL6 mice = experiment: Example 34: EPO mRNA in buffer IM or SC in mice, serum EPO (Table 60); conditions: 13 hours post injection
Experimental: Mice were intramuscularly or subcutaneously injected with 50 μl of the modified human EPO mRNA (h-EPO), modified luciferase mRNA (Luc) or the formulation buffer (F.Buffer) as described in the dosing chart Table 60. 13 hours post injection blood was collected and serum was analyzed to determine the amount human EPO for each mouse or rat.

Sprague-Dawley rats [3] = experiment: Example 35: duration after IM EPO mRNA in rats, serum EPO (Table 61); conditions: rats IM 100 μg
Experimental: The rats were bled 2, 6, 12, 24, 48 and 72 hours after the intramuscular injection to determine the concentration of human EPO in serum at a given time.

mice [4] = experiment: Example 19A: LNP IV in mice, serum EPO/G-CSF ELISA (Table 36)
Experimental: as §1
LNP formulations, shown in Table 33 (above), were administered to mice (n=4) intravenously (IV) at a single modified mRNA dose 0.05 mg/kg or 0.005 mg/kg. There was also 3 control groups of mice (n=4) that were untreated. The mice were bled at 2 hours, 8 hours, 24 hours, 48 hours and 72 hours after they were administered with G-CSF or EPO modified mRNA formulations to determine the protein expression. Protein expression of G-CSF and EPO were determined using ELISA.

rats = experiment: Example 17: LNP IV, IM, SC in rats, serum EPO/G-CSF ELISA (Table 34); conditions: for EPO / G-CSF Serum Concentration: LNP 0.05 mg/kg
Experimental: as §1
LNP formulations, shown in Table 33 (above), were administered to rats (n=5) intravenously (IV), intramuscularly (IM) or subcutaneously (SC) at a single modified mRNA dose of 0.05 mg/kg. A control group of rats (n=4) was untreated. […] The rats administered EPO modified mRNA intravenously were also bled at 7 days.

mice [5] = experiment: Example 65: G-CSF/EPO mRNA in saline in mice, serum protein at 13 hours (Table 97); conditions: EPO group; 100 ug, 100 μl/mouse, F. buffer, 13 hours after injection
Experimental: The mice were bled at 13 hours after the injection to determine the concentration of the human polypeptide in serum in pg/mL. (G-CSF groups measured human G-CSF in mouse serum and EPO groups measured human EPO in mouse serum).

mice [6] = experiment: Example 42A: G-CSF/EPO mRNA in buffer IM in mice, serum protein at 13 hours (Table 67); conditions: EPO group: human EPO in mouse serum, IM 100 ug
Experimental: The mice were bled at 13 hours after the injection to determine the concentration of the human polypeptide in serum in pg/mL (G-CSF groups measured human G-CSF in mouse serum and EPO groups measured human EPO in mouse serum).

[7] = tested on: non-human primates (cynomolgus monkey); experiment: Example 22: NHP cytokine interferon-alpha (Table 47)
Experimental: LNP formulations, shown in Table 33 (above), were administered to non-human primates (NHP) (cynomolgus monkey) (n=2) as intravenous injection (IV). The NHP were administered a single modified mRNA IV dose of 0.5 mg/kg, 0.05 mg/kg or 0.005 mg/kg of G-CSF or EPO in a dose volume of 0.5 mL/kg. The NHPs were bled before dosing with the modified mRNA LNP formulations to determine protein expression in the serum and a baseline complete blood count. After administration with the G-CSF modified mRNA formulation the NHP were bled at 8, 24, 48 and 72 hours to determined protein expression. After administration with the EPO modified mRNA formulation the NHP were bled at 8, 24, 48, 72 hours and 7 days to determined protein expression.

B1: EPO: modified mRNA encoding human erythropoietin, SEQ ID NO: 7, Cap1, fully modified with 5-methylcytosine and pseudouridine; LNP NPA-060-1 in Examples 17-22 (nucleic acid)
chain: GGGAAAUAAGAGAGAAAAGAAGAGUAAGAAGAAAUAUAAGAGCCACCAUGGGAGUGCACGAGUGUCCCGCGUGGUUGUGGUUGCUGCUGUCGCUCUUGAGCCUCCCACUGGGACUGCCUGUGCUGGGGGCACCACCCAGAUUGAUCUGCGACUCACGGGUACUUGAGAGGUACCUUCUUGAAGCCAAAGAAGCCGAAAACAUCACAACCGGAUGCGCCGAGCACUGCUCCCUCAAUGAGAACAUUACUGUACCGGAUACAAAGGUCAAUUUCUAUGCAUGGAAGAGAAUGGAAGUAGGACAGCAGGCCGUCGAAGUGUGGCAGGGGCUCGCGCUUUUGUCGGAGGCGGUGUUGCGGGGUCAGGCCCUCCUCGUCAACUCAUCACAGCCGUGGGAGCCCCUCCAACUUCAUGUCGAUAAAGCGGUGUCGGGGCUCCGCAGCUUGACGACGUUGCUUCGGGCUCUGGGCGCACAAAAGGAGGCUAUUUCGCCGCCUGACGCGGCCUCCGCGGCACCCCUCCGAACGAUCACCGCGGACACGUUUAGGAAGCUUUUUAGAGUGUACAGCAAUUUCCUCCGCGGAAAGCUGAAAUUGUAUACUGGUGAAGCGUGUAGGACAGGGGAUCGCUGAUAAGCUGCCUUCUGCGGGGCUUGCCUUCUGGCCAUGCCCUUCUUCUCUCCCUUGCACCUGUACCUCUUGGUCUUUGAAUAAAGCCUGAGUAGGAAG
modifications: Cap1, 5-methylcytosine, pseudouridine
protein expression detectable out to (mice [1]): 6 days
protein expression detectable out to (mice [1]; 0.005 mg/kg and 0.05 mg/kg): 3 days
EPO / G-CSF Serum Concentration (mice [1]; 0.005 mg/kg, 8 hours): 12,508.3 pg/ml
EPO / G-CSF Serum Concentration (mice [1]; 0.005 mg/kg, 24 hours): 6,803.0 pg/ml
EPO / G-CSF Serum Concentration (mice [1]; 0.05 mg/kg, 8 hours): 92,139.9 pg/ml
EPO / G-CSF Serum Concentration (mice [1]; 0.05 mg/kg, 24 hours): 54,389.4 pg/ml
EPO / G-CSF Serum Concentration (mice [1]; 0.5 mg/kg, 8 hours): 498,515.3 pg/ml
EPO / G-CSF Serum Concentration (mice [1]; 0.5 mg/kg, 24 hours): 160,566.3 pg/ml
EPO / G-CSF Serum Concentration (mice [1]; 0.5 mg/kg, 72 hours): 3,492.5 pg/ml
EPO / G-CSF Serum Concentration (mice [1]; 0.5 mg/kg, 6 days): 21.2 pg/mL
human EPO in serum, Avg. (Sprague-Dawley rats [2]; dose 1 μg): 28.7 pg/mL
human EPO in serum, Geometric-mean (Sprague-Dawley rats [2]; dose 1 μg): 25.4 pg/mL
human EPO in serum, Avg. (Sprague-Dawley rats [2]; dose 10 μg): 46.3 pg/mL
human EPO in serum, Geometric-mean (Sprague-Dawley rats [2]; dose 10 μg): 31.2 pg/mL
human EPO in serum, Avg. (Sprague-Dawley rats [2]; dose 50 μg): 101.5 pg/mL
human EPO in serum, Geometric-mean (Sprague-Dawley rats [2]; dose 50 μg): 85.4 pg/mL
human EPO in serum, Avg. (Sprague-Dawley rats [2]; dose 100 μg): 79.4 pg/mL
human EPO in serum, Geometric-mean (Sprague-Dawley rats [2]; dose 100 μg): 66.9 pg/mL
human EPO in serum, Avg. (Sprague-Dawley rats [2]; dose 150 μg): 67.7 pg/mL
human EPO in serum, Geometric-mean (Sprague-Dawley rats [2]; dose 150 μg): 67.1 pg/mL
Average Level in serum (human EPO) (C57/BL6 mice; mice IM, dose 1 μg): 2.6 pg/mL
Average Level in serum (human EPO) (C57/BL6 mice; mice IM, dose 10 μg): 25.9 pg/mL
Average Level in serum (human EPO) (C57/BL6 mice; mice IM, dose 25 μg): 18.7 pg/mL
Average Level in serum (human EPO) (C57/BL6 mice; mice IM, dose 50 μg): 63.5 pg/mL
Average Level in serum (human EPO) (C57/BL6 mice; mice IM, dose 100 μg): 96.2 pg/mL
Average Level in serum (human EPO) (C57/BL6 mice; mice SC, dose 100 μg): 72.0 pg/mL
human EPO in serum, Avg. (Sprague-Dawley rats [3]; 2 hour): 59.6 pg/mL
human EPO in serum, Geometric-mean (Sprague-Dawley rats [3]; 2 hour): 58.2 pg/mL
human EPO in serum, Avg. (Sprague-Dawley rats [3]; 6 hour): 68.6 pg/mL
human EPO in serum, Geometric-mean (Sprague-Dawley rats [3]; 6 hour): 55.8 pg/mL
human EPO in serum, Avg. (Sprague-Dawley rats [3]; 12 hour): 87.4 pg/mL
human EPO in serum, Geometric-mean (Sprague-Dawley rats [3]; 12 hour): 84.5 pg/mL
human EPO in serum, Avg. (Sprague-Dawley rats [3]; 24 hour): 108.6 pg/mL
human EPO in serum, Geometric-mean (Sprague-Dawley rats [3]; 24 hour): 95.3 pg/mL
human EPO in serum, Avg. (Sprague-Dawley rats [3]; 48 hour): 77.9 pg/mL
human EPO in serum, Geometric-mean (Sprague-Dawley rats [3]; 48 hour): 77.0 pg/mL
human EPO in serum, Avg. (Sprague-Dawley rats [3]; 72 hour): 80.1 pg/mL
human EPO in serum, Geometric-mean (Sprague-Dawley rats [3]; 72 hour): 75.8 pg/mL
EPO / G-CSF Serum Concentration (mice [4]; 0.005 mg/kg, 2 hours): OSC
EPO / G-CSF Serum Concentration (mice [4]; 0.005 mg/kg, 8 hours): 1,632.8 pg/ml
EPO / G-CSF Serum Concentration (mice [4]; 0.005 mg/kg, 24 hours): 1,141.0 pg/ml
EPO / G-CSF Serum Concentration (mice [4]; 0.005 mg/kg, 48 hours): 137.4 pg/mL
EPO / G-CSF Serum Concentration (mice [4]; 0.005 mg/kg, 72 hours): 0 pg/mL
EPO / G-CSF Serum Concentration (mice [4]; 0.05 mg/kg, 2 hours): 10,027.3 pg/ml
EPO / G-CSF Serum Concentration (mice [4]; 0.05 mg/kg, 8 hours): 56,547.2 pg/ml
EPO / G-CSF Serum Concentration (mice [4]; 0.05 mg/kg, 24 hours): 25,027.3 pg/ml
EPO / G-CSF Serum Concentration (mice [4]; 0.05 mg/kg, 48 hours): 1,432.3 pg/ml
EPO / G-CSF Serum Concentration (mice [4]; 0.05 mg/kg, 72 hours): 82.2 pg/mL
protein expression detectable out to (rats; IV): 5 days
EPO / G-CSF Serum Concentration (rats; IM, 2 hours): 1395.4 pg/mL
EPO / G-CSF Serum Concentration (rats; IM, 8 hours): 8974.6 pg/mL
EPO / G-CSF Serum Concentration (rats; IM, 24 hours): 4678.3 pg/mL
EPO / G-CSF Serum Concentration (rats; IV, 2 hours): 36,981.0 pg/ml
EPO / G-CSF Serum Concentration (rats; IV, 8 hours): 62,053.3 pg/ml
EPO / G-CSF Serum Concentration (rats; IV, 24 hours): 42,077.0 pg/ml
EPO / G-CSF Serum Concentration (rats; IV, 48 hours): 5,561.5 pg/ml
EPO / G-CSF Serum Concentration (rats; IV, 5 days): 0.0 pg/mL
EPO / G-CSF Serum Concentration (rats; IV, 7 days): 0.0 pg/mL
EPO / G-CSF Serum Concentration (rats; SC, 2 hours): 386.2 pg/mL
EPO / G-CSF Serum Concentration (rats; SC, 8 hours): 985.6 pg/mL
EPO / G-CSF Serum Concentration (rats; SC, 24 hours): 544.2 pg/mL
protein expression detectable to (rats; subcutaneous and intramuscular): at least 24 hours
Average Protein Product, serum (human EPO) (mice [5]): 72.03 pg/mL
Average Protein Product, serum (mice [6]): 191.5 pg/mL
IFN-alpha ([7]; 0.005 mg/kg, 4 days, Female NHP): 0 pg/mL
IFN-alpha ([7]; 0.005 mg/kg, 4 days, Male NHP): 0 pg/mL
IFN-alpha ([7]; 0.005 mg/kg, Day 1 + 8 hr, Female NHP): 0 pg/mL
IFN-alpha ([7]; 0.005 mg/kg, Day 1 + 8 hr, Male NHP): 0 pg/mL
IFN-alpha ([7]; 0.005 mg/kg, Pre-dose, Female NHP): 0 pg/mL
IFN-alpha ([7]; 0.005 mg/kg, Pre-dose, Male NHP): 0 pg/mL
IFN-alpha ([7]; 0.05 mg/kg, 4 days, Female NHP): 0 pg/mL
IFN-alpha ([7]; 0.05 mg/kg, 4 days, Male NHP): 0 pg/mL
IFN-alpha ([7]; 0.05 mg/kg, Day 1 + 8 hr, Female NHP): 0 pg/mL
IFN-alpha ([7]; 0.05 mg/kg, Day 1 + 8 hr, Male NHP): 0 pg/mL
IFN-alpha ([7]; 0.05 mg/kg, Pre-dose, Female NHP): 0 pg/mL
IFN-alpha ([7]; 0.05 mg/kg, Pre-dose, Male NHP): 0 pg/mL
IFN-alpha ([7]; 0.5 mg/kg, 4 days, Female NHP): 0 pg/mL
IFN-alpha ([7]; 0.5 mg/kg, 4 days, Male NHP): 0 pg/mL
IFN-alpha ([7]; 0.5 mg/kg, Day 1 + 8 hr, Female NHP): 217.5 pg/mL
IFN-alpha ([7]; 0.5 mg/kg, Day 1 + 8 hr, Male NHP): 16.79 pg/mL
IFN-alpha ([7]; 0.5 mg/kg, Pre-dose, Female NHP): 0 pg/mL
IFN-alpha ([7]; 0.5 mg/kg, Pre-dose, Male NHP): 0 pg/mL
